B1: Invasin IpaA (Shigella flexneri), P18010 (parent)
chain: MHNVNNTQAPTFLYKATSPSSTEYSELKSKISDIHSSQTSLKTPASVSEKENFATSFNQKCLDFLFSSSGKEDVLRSIYSNSMNAYAKSEILEFSNVLYSLVHQNGLNFENEKGLQKIVAQYSELIIKDKLSQDSAFGPWSAKNKKLHQLRQNIEHRLALLAQQHTSGEALSLGQKLLNTEVSSFIKNNILAELKLSNETVSSLKLDDLVDAQAKLAFDSLRNQRKNTIDSKGFGIGKLSRDLNTVAVFPELLRKVLNDILEDIKDSHPIQDGLPTPPEDMPDGGPTPGANEKTSQPVIHYHINNDNRTYDNRVFDNRVYDNSYHENPENDAQSPTSQTNDLLSRNGNSLLNPQRALVQKVTSVLPHSISDTVQTFANNSALEKVFNHTPDNSDGIGSDLLTTSSQERSANNSLSRGHRPLNIQNSSTTPPLHPEGVTSSNDNSSDTTKSSASLSHRVASQINKFNSNTDSKVLQTDFLSRNGDTYLTRETIFEASKKVTNSLSNLISLIGTKSGTQERELQEKSKDITKSTTEHRINNKLKVTDANIRNYVTETNADTIDKNHAIYEKAKEVSSALSKVLSKIDDTSAELLTDDISDLKNNNDITAENNNIYKAAKDVTTSLSKVLKNINKD

Variants of: B1
Details: with vinc_human VCL

Q: For A495K, which “effect of a mutation on the interaction” value is on record?
A: Its value is “decreasing interaction”.

Variants of: B1
Details: with vinc_human VCL
Remark: another data set of the same source

Q: With V499E;L503Q as the variant, how does the “effect of a mutation on the interaction” value read?
A: The value was “disrupting interaction”.

Source: IntAct's records for PubMed 21525010
